We go through 1 molecule from publication PMC4720525.

The data set has as its target YY1 (Mus musculus, UniProt Q00899 1-414). Put plainly: EMSA.

Sequence of YY1 (Q00899 whole entry): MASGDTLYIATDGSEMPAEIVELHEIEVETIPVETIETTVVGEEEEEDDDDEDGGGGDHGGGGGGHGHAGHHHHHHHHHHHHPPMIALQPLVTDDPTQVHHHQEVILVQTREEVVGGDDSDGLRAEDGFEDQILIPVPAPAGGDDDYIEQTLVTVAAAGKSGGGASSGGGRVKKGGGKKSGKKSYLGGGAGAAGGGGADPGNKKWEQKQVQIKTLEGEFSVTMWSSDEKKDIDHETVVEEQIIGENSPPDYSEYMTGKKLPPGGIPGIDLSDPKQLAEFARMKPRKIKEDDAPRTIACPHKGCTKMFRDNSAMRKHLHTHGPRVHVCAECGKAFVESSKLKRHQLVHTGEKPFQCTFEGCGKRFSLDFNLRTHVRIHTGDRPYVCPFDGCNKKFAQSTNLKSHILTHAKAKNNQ

B1: Arid1a promoter 30-bp DNA (dsDNA)
DNA 1: CTCTTCTCTCTTAAAATGGCTGCCTGTCTG
DNA 2: CAGACAGGCAGCCATTTTAAGAGAGAAGAG
With B1, the binding result is “binds”.
